Where two headings read alike, the source gives them in different places.
Assays:
[1] = target: Drc (ssDNA-binding RNA Polymerase Cofactor), Pseudomonas virus LUZ7 gp14 (Pseudomonas virus LUZ7); assay: crystal structure
[2] = target: Drc(Δ67–99) (Pseudomonas virus LUZ7); assay: SEC
[3] = target: T1, Drc (gp14) (Pseudomonas phage LUZ7, UniProt C8ZKB3); assay: EMSA
T1 sequence: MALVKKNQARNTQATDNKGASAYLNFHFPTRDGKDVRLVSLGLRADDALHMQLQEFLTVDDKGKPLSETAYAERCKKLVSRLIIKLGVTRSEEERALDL

[4] = target: T1, Drc (gp14); assay: EMSA; remark: listed apart in the source

Question: “Drc (ssDNA-binding RNA Polymerase Cofactor), Pseudomonas virus LUZ7 gp14 (natural protein)” was tested. Which stoichiometry N [1] did it give?
Answer: 2

Question: How did the stoichiometry N [2] turn out when Drc(Δ67–99) (domain or fragment) was run?
Answer: 2

B1: internally melted duplex (dsDNA)
DNA 1: GGGCGGCGGTTTTTTTTTTGCGGGGCGG
DNA 2: CCGCCCCGCTTTTTTTTTTCCGCCGCCC
Question: Does B1 bind [3]?
Answer: binds

B2: 30-nt ssDNA (ssDNA)
DNA: TGAGTTTTTTTCATTTTTTGCGTAAATTTC
Question: Does B2 bind [4]?
Answer: binds

Source: PMC7145618
